Starred links: 1 amine or outer side, 2 acyl side, 3 side chain; linkers in the order of their positions; H or OH if unused. Positions of bridges follow the written chain, without caps; N, C: chain ends. Primed or numbered codes have the meaning given here. No end group written: not given here. *: point of attachment. mClBz(3) = 3-(chloromethyl)benzoic acid, non-amino acid initiator forming a thioether with the C-terminal-region Cys, O=C(c1cccc(C[*:3])c1)[*:2]; mBz = 3-(methylene)benzoyl on the N-terminal amine, O=C(c1cccc(C[*:3])c1)[*:2]; Bn = c1ccc(C*)cc1; Acm = CC(=O)NC*
B1: 3 (peptide)
peptide: mBz-LCIWIGSSKNPYILCG-NH2
modifications: thioether N-15
SMILES: CC[C@H](C)[C@@H]1NC(=O)[C@H](Cc2c[nH]c3ccccc23)NC(=O)[C@H]([C@@H](C)CC)NC(=O)[C@H](CS)NC(=O)[C@H](CC(C)C)NC(=O)c2cccc(c2)CSC[C@@H](C(=O)NCC(N)=O)NC(=O)[C@H](CC(C)C)NC(=O)[C@H]([C@@H](C)CC)NC(=O)[C@H](Cc2ccc(O)cc2)NC(=O)[C@@H]2CCCN2C(=O)[C@H](CC(N)=O)NC(=O)[C@H](CCCCN)NC(=O)[C@H](CO)NC(=O)[C@H](CO)NC(=O)CNC1=O
notes: also called CP1-L2C; cyclic peptide 3
B2: 4 (peptide)
peptide: mBz-LLCWIGSSKNPYILCG-NH2
modifications: thioether N-15
SMILES: CC[C@H](C)[C@@H]1NC(=O)[C@H](Cc2c[nH]c3ccccc23)NC(=O)[C@H](CS)NC(=O)[C@H](CC(C)C)NC(=O)[C@H](CC(C)C)NC(=O)c2cccc(c2)CSC[C@@H](C(=O)NCC(N)=O)NC(=O)[C@H](CC(C)C)NC(=O)[C@H]([C@@H](C)CC)NC(=O)[C@H](Cc2ccc(O)cc2)NC(=O)[C@@H]2CCCN2C(=O)[C@H](CC(N)=O)NC(=O)[C@H](CCCCN)NC(=O)[C@H](CO)NC(=O)[C@H](CO)NC(=O)CNC1=O
notes: also called CP1-I3C; cyclic peptide 4
B3: cyclic peptide 16, CP1-L1C-CH2C6H5 (peptide)
peptide: {mClBz(3)}-C(Bn)LIWIGSSKNPYILCG
modifications: bridge N-15; not fully specified (C-terminus, bridges)
B4: 7 (peptide)
peptide: mBz-LLIWICSSKNPYILCG-NH2
modifications: thioether N-15
SMILES: CC[C@H](C)[C@@H]1NC(=O)[C@H](Cc2c[nH]c3ccccc23)NC(=O)[C@H]([C@@H](C)CC)NC(=O)[C@H](CC(C)C)NC(=O)[C@H](CC(C)C)NC(=O)c2cccc(c2)CSC[C@@H](C(=O)NCC(N)=O)NC(=O)[C@H](CC(C)C)NC(=O)[C@H]([C@@H](C)CC)NC(=O)[C@H](Cc2ccc(O)cc2)NC(=O)[C@@H]2CCCN2C(=O)[C@H](CC(N)=O)NC(=O)[C@H](CCCCN)NC(=O)[C@H](CO)NC(=O)[C@H](CO)NC(=O)[C@H](CS)NC1=O
notes: also called CP1-G6C; cyclic peptide 7
B5: 5 (peptide)
peptide: mBz-LLICIGSSKNPYILCG-NH2
modifications: thioether N-15
SMILES: CC[C@H](C)[C@@H]1NC(=O)[C@H](CS)NC(=O)[C@H]([C@@H](C)CC)NC(=O)[C@H](CC(C)C)NC(=O)[C@H](CC(C)C)NC(=O)c2cccc(c2)CSC[C@@H](C(=O)NCC(N)=O)NC(=O)[C@H](CC(C)C)NC(=O)[C@H]([C@@H](C)CC)NC(=O)[C@H](Cc2ccc(O)cc2)NC(=O)[C@@H]2CCCN2C(=O)[C@H](CC(N)=O)NC(=O)[C@H](CCCCN)NC(=O)[C@H](CO)NC(=O)[C@H](CO)NC(=O)CNC1=O
notes: also called CP1-W4C; cyclic peptide 5
B6: cyclic peptide 15, CP1-L1C-CH3 (peptide)
peptide: {mClBz(3)}-C(CH3)LIWIGSSKNPYILCG
modifications: bridge N-15; not fully specified (C-terminus, bridges)
B7: 12 (peptide)
peptide: mBz-LLIWIGSSKNPCILCG-NH2
modifications: thioether N-15
SMILES: CC[C@H](C)[C@@H]1NC(=O)[C@H](Cc2c[nH]c3ccccc23)NC(=O)[C@H]([C@@H](C)CC)NC(=O)[C@H](CC(C)C)NC(=O)[C@H](CC(C)C)NC(=O)c2cccc(c2)CSC[C@@H](C(=O)NCC(N)=O)NC(=O)[C@H](CC(C)C)NC(=O)[C@H]([C@@H](C)CC)NC(=O)[C@H](CS)NC(=O)[C@@H]2CCCN2C(=O)[C@H](CC(N)=O)NC(=O)[C@H](CCCCN)NC(=O)[C@H](CO)NC(=O)[C@H](CO)NC(=O)CNC1=O
notes: also called CP1-Y12C; cyclic peptide 12
B8: 10 (peptide)
peptide: mBz-LLIWIGSSKCPYILCG-NH2
modifications: thioether N-15
SMILES: CC[C@H](C)[C@@H]1NC(=O)[C@H](Cc2c[nH]c3ccccc23)NC(=O)[C@H]([C@@H](C)CC)NC(=O)[C@H](CC(C)C)NC(=O)[C@H](CC(C)C)NC(=O)c2cccc(c2)CSC[C@@H](C(=O)NCC(N)=O)NC(=O)[C@H](CC(C)C)NC(=O)[C@H]([C@@H](C)CC)NC(=O)[C@H](Cc2ccc(O)cc2)NC(=O)[C@@H]2CCCN2C(=O)[C@H](CS)NC(=O)[C@H](CCCCN)NC(=O)[C@H](CO)NC(=O)[C@H](CO)NC(=O)CNC1=O
notes: also called CP1-N10C; cyclic peptide 10
B9: 14 (peptide)
peptide: mBz-C(Acm)LIWIGSSKNPYILCG-NH2
modifications: thioether N-15
SMILES: CC[C@H](C)[C@@H]1NC(=O)[C@H](Cc2c[nH]c3ccccc23)NC(=O)[C@H]([C@@H](C)CC)NC(=O)[C@H](CC(C)C)NC(=O)[C@H](CSCNC(C)=O)NC(=O)c2cccc(c2)CSC[C@@H](C(=O)NCC(N)=O)NC(=O)[C@H](CC(C)C)NC(=O)[C@H]([C@@H](C)CC)NC(=O)[C@H](Cc2ccc(O)cc2)NC(=O)[C@@H]2CCCN2C(=O)[C@H](CC(N)=O)NC(=O)[C@H](CCCCN)NC(=O)[C@H](CO)NC(=O)[C@H](CO)NC(=O)CNC1=O
notes: Acm-protected precursor of cyclic peptide 2; also called CP1-L1C-Acm; cyclic peptide 14
B10: 13 (peptide)
peptide: mBz-LLIWIGSSKNPYCLCG-NH2
modifications: thioether N-15
SMILES: CC[C@H](C)[C@@H]1NC(=O)[C@H](Cc2c[nH]c3ccccc23)NC(=O)[C@H]([C@@H](C)CC)NC(=O)[C@H](CC(C)C)NC(=O)[C@H](CC(C)C)NC(=O)c2cccc(c2)CSC[C@@H](C(=O)NCC(N)=O)NC(=O)[C@H](CC(C)C)NC(=O)[C@H](CS)NC(=O)[C@H](Cc2ccc(O)cc2)NC(=O)[C@@H]2CCCN2C(=O)[C@H](CC(N)=O)NC(=O)[C@H](CCCCN)NC(=O)[C@H](CO)NC(=O)[C@H](CO)NC(=O)CNC1=O
notes: also called CP1-I13C; cyclic peptide 13
B11: cyclic peptide 17, CP1-L1C-CH2CONH2 (peptide)
peptide: {mClBz(3)}-C(CH2CONH2)LIWIGSSKNPYILCG
modifications: bridge N-15; not fully specified (C-terminus, bridges)
B12: 9 (peptide)
peptide: mBz-LLIWIGSCKNPYILCG-NH2
modifications: thioether N-15
SMILES: CC[C@H](C)[C@@H]1NC(=O)[C@H](Cc2c[nH]c3ccccc23)NC(=O)[C@H]([C@@H](C)CC)NC(=O)[C@H](CC(C)C)NC(=O)[C@H](CC(C)C)NC(=O)c2cccc(c2)CSC[C@@H](C(=O)NCC(N)=O)NC(=O)[C@H](CC(C)C)NC(=O)[C@H]([C@@H](C)CC)NC(=O)[C@H](Cc2ccc(O)cc2)NC(=O)[C@@H]2CCCN2C(=O)[C@H](CC(N)=O)NC(=O)[C@H](CCCCN)NC(=O)[C@H](CS)NC(=O)[C@H](CO)NC(=O)CNC1=O
notes: also called CP1-S8C; cyclic peptide 9
B13: 8 (peptide)
peptide: mBz-LLIWIGCSKNPYILCG-NH2
modifications: thioether N-15
SMILES: CC[C@H](C)[C@@H]1NC(=O)[C@H](Cc2c[nH]c3ccccc23)NC(=O)[C@H]([C@@H](C)CC)NC(=O)[C@H](CC(C)C)NC(=O)[C@H](CC(C)C)NC(=O)c2cccc(c2)CSC[C@@H](C(=O)NCC(N)=O)NC(=O)[C@H](CC(C)C)NC(=O)[C@H]([C@@H](C)CC)NC(=O)[C@H](Cc2ccc(O)cc2)NC(=O)[C@@H]2CCCN2C(=O)[C@H](CC(N)=O)NC(=O)[C@H](CCCCN)NC(=O)[C@H](CO)NC(=O)[C@H](CS)NC(=O)CNC1=O
notes: also called CP1-S7C; cyclic peptide 8
B14: 6 (peptide)
peptide: mBz-LLIWCGSSKNPYILCG-NH2
modifications: thioether N-15
SMILES: CC[C@H](C)[C@@H]1NC(=O)[C@H](CC(C)C)NC(=O)[C@H](CC(C)C)NC(=O)c2cccc(c2)CSC[C@@H](C(=O)NCC(N)=O)NC(=O)[C@H](CC(C)C)NC(=O)[C@H]([C@@H](C)CC)NC(=O)[C@H](Cc2ccc(O)cc2)NC(=O)[C@@H]2CCCN2C(=O)[C@H](CC(N)=O)NC(=O)[C@H](CCCCN)NC(=O)[C@H](CO)NC(=O)[C@H](CO)NC(=O)CNC(=O)[C@H](CS)NC(=O)[C@H](Cc2c[nH]c3ccccc23)NC1=O
notes: also called CP1-I5C; cyclic peptide 6
B15: cyclic peptide 18, CP1-L1C-CH2C10H7 (peptide)
peptide: {mClBz(3)}-C(CH2C10H7)LIWIGSSKNPYILCG
modifications: bridge N-15; not fully specified (C-terminus, bridges)
B16: 11 (peptide)
peptide: mBz-LLIWIGSSKNCYILCG-NH2
modifications: thioether N-15
SMILES: CC[C@H](C)[C@@H]1NC(=O)[C@H](Cc2c[nH]c3ccccc23)NC(=O)[C@H]([C@@H](C)CC)NC(=O)[C@H](CC(C)C)NC(=O)[C@H](CC(C)C)NC(=O)c2cccc(c2)CSC[C@@H](C(=O)NCC(N)=O)NC(=O)[C@H](CC(C)C)NC(=O)[C@H]([C@@H](C)CC)NC(=O)[C@H](Cc2ccc(O)cc2)NC(=O)[C@H](CS)NC(=O)[C@H](CC(N)=O)NC(=O)[C@H](CCCCN)NC(=O)[C@H](CO)NC(=O)[C@H](CO)NC(=O)CNC1=O
notes: also called CP1-P11C; cyclic peptide 11

Target: T1, biotinylated-Lys63 linked Di-Ub (UniProt P0CG47 1-76, isopeptide bond between the C-terminal Gly of the distal Ub and Lys63 of the proximal Ub; biotin tag at the N-terminus of the distal Ub)
T1 construct: mature; Immobilised on streptavidin plates or on the SPR CAPture chip; also called K63-linked Di-Ub; biotin-Lys63 linked Di-Ub
Assay: fluorescence-based competitive assay: unlabeled peptide, 5.0 molar equiv., pre-bound to biotinylated Lys63-linked Di-Ub on a streptavidin plate, then competed with CP1-FITC (1 equiv.); signal change relative to 1 (CP1), Y=[1-(a/b)]x100
Procedure: Streptavidin-coated microplate (96 well plate) was washed with HEPES buffer (50 Mm HEPES, 150 Mm NaCl, pH 7.30) and then in each well incubated 1 μg of biotinylated-Lys63-linked Di-Ub in 100 μl of the same buffer at RT. for 30 min. Additional wells were kept without biotinylated-Lys63-Di-Ub for blank subtraction. After the washing step, peptide standard (CP1) and unlabeled peptides were incubated (5.0 molar equivalent relative to biotin-Lys63-linked Di-Ub) at RT for 30 minutes for saturation binding to the target. Then 1 molar equivalent of FITC labeled peptide-standard (CP1-FITC) relative to biotinylated-Lys63-linked Di-Ub was incubated to compete with unlabeled peptides at RT for 30 min. After releasing bounded peptides on treatment with 6 M Guanidinium chloride (Gnd·HCl), the fluorescence values were measured (λex=480 nm and λem=525 nm). These values were normalized and then calculated the relative change in binding with the following formula:
Y=[1−(a/b)]×100 [0289] Where Y=Signal change relative to the standard (CP1) (in terms of %). [0290] a=Measured signal value of each peptide candidate (in Relative Fluorescence Units). [0291] b=Measured signal value of standard peptide (CP1). The dissociation constant (KD) of fluorescein-labeled peptide (CP1-FITC) was calculated in accordance with the literature procedure (Vamisetti G B et al., 2021).

Row | binding result | Binder
1 | binds | B1
2 | binds | B2
3 | binds | B3
4 | binds | B4
5 | binds | B5
6 | binds | B6
7 | binds | B7
8 | binds | B8
9 | binds | B9
10 | binds | B10
11 | binds | B11
12 | binds | B12
13 | binds | B13
14 | binds | B14
15 | binds | B15
16 | binds | B16

Source: US20250099534A1 (TECHNION RESEARCH AND DEVELOPMENT FOUNDATION, published 2025)
